Experiment [1] addresses L2-OVX313 (human papillomavirus type 16) (UniProt P03107). The experiment can be described thus: non-reducing SDS-PAGE; heparin-purified antigen electrophoresed without β-mercaptoethanol (disulfide-linked oligomer kept); reduced sample beside it runs as the monomer.
For experiment [2] the target is unchanged. Put plainly: SEC; Superdex 200 HR10/30, 25 mM Tris-HCl (pH 7.5), 150 mM NaCl, 0.7 ml/min; heparin-purified antigen; calibrated with molecular mass standards. On the technique in general: SEC sorts molecules by how far they enter the pores of the column.
Experiment [3] has as its target PfTrx-L2(8x)-OVX313 (Pyrococcus furiosus). The experiment can be described thus: non-reducing SDS-PAGE; heparin-purified antigen electrophoresed without β-mercaptoethanol (disulfide-linked oligomer kept); reduced sample beside it runs as the monomer.
The target is the same in experiment [4]. Put plainly: SEC; Superdex 200 HR10/30, 25 mM Tris-HCl (pH 7.5), 150 mM NaCl, 0.7 ml/min; heparin-purified antigen; calibrated with molecular mass standards.
The target in experiment [5] is PfTrx-L2-OVX313 (Pyrococcus furiosus | human papillomavirus type 16) (UniProt P03107). The experiment can be described thus: non-reducing SDS-PAGE; heparin-purified antigen electrophoresed without β-mercaptoethanol (disulfide-linked oligomer kept); reduced sample beside it runs as the monomer.
Experiment [6] shares this target. Put plainly: SEC; Superdex 200 HR10/30, 25 mM Tris-HCl (pH 7.5), 150 mM NaCl, 0.7 ml/min; heparin-purified antigen; calibrated with molecular mass standards.

Regarding “L2-OVX313 (from UniProt P03107 20-38; P03107 20-38; P03107 20-38)”, the stoichiometry N in experiment [1] and in experiment [2] was 7 each time.
Regarding PfTrx-L2(8x)-OVX313, the stoichiometry N in experiment [3] and in experiment [4] was 7 each time.
Consider “PfTrx-L2-OVX313 (from UniProt P03107 20-38; P03107 20-38; P03107 20-38)”, for which the stoichiometry N in experiment [5] and in experiment [6] was 7 throughout.

Source of the values: article PMC5740060.
